B1: recombinant human MetAP-2 expressed in Sf9 insect cells (protein)
chain: AGVEEVAASGSHLNGDLDPDDREEGAASTAEEAAKKKRRKKKKSKGPSAAGEQEPDKESGASVDEVARQLERSALEDKERDEDDEDGDGDGDGATGKKKKKKKKKRGPKVQTDPPSVPICDLYPNGVFPKGQECEYPPTQDGRTAAWRTTSEEKKALDQASEEIWNDFREAAEAHRQVRKYVMSWIKPGMTMIEICEKLEDCSRKLIKENGLNAGLAFPTGCSLNNCAAHYTPNAGDTTVLQYDDICKIDFGTHISGRIIDCAFTVTFNPKYDTLLKAVKDATNTGIKCAGIDVRLCDVGEAIQEVMESYEVEIDGKTYQVKPIRNLNGHSIGQYRIHAGKTVPIVKGGEATRMEEGEVYAIETFGSTGKGVVHDDMECSHYMKNFDVGHVPIRLPRTKHLLNVINENFGTLAFCRRWLDRLGESKYLMALKNLCDLGIVDPYPPLCDIKGSYTAQFEHTILLRPTCKEVVSRGDDY
B2: recombinant human MetAP-3 purified from E. coli after thrombin cleavage of the NusA-6xHis tag (protein)
chain: SSPLNHIYLHKQSSSQQRRNFFFRRQRDISHSIVLPAAVSSAHPVPKHIKKPDYVTTGIVPDWGDSIEVKNEDQIQGLHQACQLARHVLLLAGKSLKVDMTTEEIDALVHREIISHNAYPSPLGYGGFPKSVCTSVNNVLCHGIPDSRPLQDGDIINIDVTVYYNGYHGDTSETFLVGNVDECGKKLVEVARRCRDEAIAACRAGAPFSVIGNTISHITHQNGFQVCPHFVGHGIGSYFHGHPEIWHHANDSDLPMEEGMAFTIEPIITEGSPEFKVLEDAWTVVSLDNQRSAQFEHTVLITSRGAQILTKLPHEA

Experiments:
[1] = target: T1, MAS tripeptide (Met-Ala-Ser)
T1 chain: MAS

GGG tripeptide = target: T2, GGG tripeptide
T2 chain: GGG

IGG tripeptide = target: T3, IGG tripeptide
T3 chain: IGG

MEG tripeptide = target: T4, MEG tripeptide
T4 chain: MEG

MGG tripeptide = target: T5, MGG tripeptide
T5 chain: MGG

Row | Protein | Km [1] | kcat [1] | Cleaved (GGG tripeptide) | Vmax (Abs × 1000/min) (Abs × 1000/min) (GGG tripeptide) | Cleaved (IGG tripeptide) | Vmax (Abs × 1000/min) (Abs × 1000/min) (IGG tripeptide) | Cleaved [1] | Vmax (Abs × 1000/min) (Abs × 1000/min) [1] | Cleaved (MEG tripeptide) | Vmax (Abs × 1000/min) (Abs × 1000/min) (MEG tripeptide) | Cleaved (MGG tripeptide) | Vmax (Abs × 1000/min) (Abs × 1000/min) (MGG tripeptide)
1 | B1 | 0.3 mM | 2.3 s⁻¹ | – | – | – | – | – | – | – | – | – | –
2 | B2 | 0.6 mM | 0.06 s⁻¹ | No | 0.7 | No | 3.1 | Yes | 70 | No | 1.1 | Yes | 134

— patent US20030203406
